B2: Acetyl-CoA carboxylase carboxyltransferase subunit AccA (enzyme)
chain: MSLNFLDFEQPIAELEAKIDSLTAVSRQDEKLDINIDEEVHRLREKSVELTRKIFADLGAWQIAQLARHPQRPYTLDYVRLAFDEFDELAGDRAYADDKAIVGGIARLDGRPVMIIGHQKGRETKEKIRRNFGMPAPEGYRKALRLMQMAERFKMPIITFIDTPGAYPGVGAEERGQSEAIARNLREMSRLGVPVVCTVIGEGGSGGALAIGVGDKVNMLQYSTYSVISPEGCASILWKSADKAPLAAEAMGIIAPRLKELKLIDSIIPEPLGGAHRNPEAMAASLKAQLLADLADLDVLSTEDLKNRRYQRLMSYGYA

How the values were obtained:
[1] = target: Biotin carboxylase AccC (E. coli, UniProt P24182 1-449); test: SEC
[2] = target: B2; test: cryo-EM structure

B1: Acetyl-CoA carboxylase carboxyltransferase subunit AccD (enzyme, E. coli, UniProt P0A9Q5 1-304, looked up)
chain: MSWIERIKSNITPTRKASIPEGVWTKCDSCGQVLYRAELERNLEVCPKCDHHMRMTARNRLHSLLDEGSLVELGSELEPKDVLKFRDSKKYKDRLASAQKETGEKDALVVMKGTLYGMPVVAAAFEFAFMGGSMGSVVGARFVRAVEQALEDNCPLICFSASGGARMQEALMSLMQMAKTSAALAKMQERGLPYISVLTDPTMGGVSASFAMLGDLNIAEPKALIGFAGPRVIEQTVREKLPPGFQRSEFLIEKGAIDMIVRRPEMRLKLASILAKLMNLPAPNPEAPREGVVVPPVPDQEPEA
B1 was tested, and the “stoichiometry N” value [1] was about 1 and the binding result [2] was “binds”.

For B2, the “stoichiometry N” value [1] was about 1.
